For data set [1], the target named is H3T3 phosphorylated nucleosome core particle (H3T3ph NCP) (UniProt P62805). As to the kind of experiment: native gel or EMSA; 20 nM H3T3ph NCPs wrapped with centromeric α-satellite DNA; CPC 7.8 nM to 2 µM, 1 h on ice; 10 mM Tris pH 7.5, 250 mM NaCl, 1 mM MgCl2, 1 mM DTT, 1% glycerol, 0.1 mg/ml BSA; gel at 4 °C; unbound NCP band quantified, specific binding with Hill slope. A general note: In EMSA bound probe runs differently from free probe, usually more slowly.

Data set [2] shares this target. As to the kind of experiment: mass photometry; CPC-NCP complexes diluted to 20 nM (legend of Fig. EV1D: 50 nM) in 20 mM HEPES pH 8.0, 50 mM NaCl, 1 mM EDTA, 1 mM DTT; Refeyn TwoMP; Gaussian fitting of mass populations.
Data set [3] has as its target CPC I1-190 SB dloop del110-206;Borealin (UniProt Q9NQS7+O15392+Q53HL2). As to the kind of experiment: EMSA. The settings on record: histone H3 T3ph (native ligation, H3T32C); EMSA: 20 nM NCP, 10 mM Tris pH 7.5, 250 mM NaCl, 1 mM MgCl2, 1 mM DTT, 1% glycerol, 0.1 mg/ml BSA, 1 h on ice; gel at 4 C. SPR buffer not in the material.
Data set [4] deals with CPC I1-190 6A SB R65A;R66A;K67A;K68A;R69A;R70A;INCENP (UniProt Q9NQS7+O15392+Q53HL2). As to the kind of experiment: EMSA. The conditions noted are these: histone H3 T3ph; EMSA: 20 nM NCP, 10 mM Tris pH 7.5, 250 mM NaCl, 1 mM MgCl2, 1 mM DTT, 1% glycerol, 0.1 mg/ml BSA, 1 h on ice; gel at 4 C. SPR buffer not in the material.
For data set [5], the target named is CPC I1-190 6A SB dloop R65A;R66A;K67A;K68A;R69A;R70A;internal_change (UniProt Q9NQS7+O15392+Q53HL2). As to the kind of experiment: EMSA. The settings on record: histone H3 T3ph; EMSA: 20 nM NCP, 10 mM Tris pH 7.5, 250 mM NaCl, 1 mM MgCl2, 1 mM DTT, 1% glycerol, 0.1 mg/ml BSA, 1 h on ice; gel at 4 C. SPR buffer not in the material.

Values joined by “and” are separate entries in the source; they are usually repeats but may differ in a detail not shown here. Equal values may be shown once.

“CPC_(I1-190 6ASB) (INCENP with RRKKRR mutated to AAAAAA) (from UniProt Q53HL2 1-280; O15392 1-142; Q9NQS7 1-190) (complex)” had a times weaker binding against CPC (I1-190SB) in data set [1] of 1.5 times.
For “CPC_(I1-58SBS266D) (containing INCENP 1-58, full-length Survivin and full-length Borealin dimer breaking mutant, S266D) (from UniProt Q53HL2 1-280; O15392 1-142; Q9NQS7 1-58) (complex)”, in data set [2], the stoichiometry N (usually a count of units in the complex or per binding partner) is 1 CPC per NCP and 2 CPC per NCP.
Regarding “ACAGGATGTATATATGTGACACGTGCCTGGAGACTAGGGAGTAATCCCCTTGGCGGTTAAAACGCGGGGGACAGCGCGTACGTGCGTTTAAGCGGTGCTAGAGCTGTCTACGACCAATTGAGCGGCCTCGGCACCGGGATTCTCCAG (double strand) [H3T3ph NCP, Widom 601 147 bp]”, the fold decrease in binding affinity vs P1 (fold decrease in affinity vs P1) in data set [3] is 12.
In the case of “CPC_(I1-190SB) (CPC containing INCENP 1-190, full-length Survivin and full-length Borealin) (from UniProt Q53HL2 1-280; O15392 1-142; Q9NQS7 1-190) (complex)”, in data set [2], the stoichiometry N is 2 CPC per NCP.
As to H3T3ph NCP, alpha-satellite 147 bp, in data set [4], the binding signal (fold weaker vs P1) came out at 1.5. In data set [5], this substance displayed a binding signal of 13 fold.
As for “CPC_(I1-58SB) (containing INCENP 1-58, full-length Survivin and full-length Borealin) (from UniProt Q53HL2 1-280; O15392 1-142; Q9NQS7 1-58) (complex)”, the stoichiometry N in data set [2] was 2 CPC per NCP and 1 CPC per NCP.

For the origin of these results see article PMC12624148.
